Measured values taken from doi:10.1101/2025.04.17.649292.

Target: poly-L-proline (PLP) coupled to Sepharose 4B
Experiment: affinity chromatography on poly-L-proline Sepharose

GST-δLdPfn (LdPfn with amino acids 110 to 128 deleted, N-terminal GST tag) (natural protein)
reduction of binding to PLP relative to GST-LdPfn: 30%
